Results: the supplement of paper PMC9170038

Test system: MS2 coat protein
Experiment: apparent KD of MS2 coat protein; designed switch direction (-1 OFF switch, 1 ON switch): 1; higher = weaker reporter binding
In short: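 Apparent KD, taken as the median over clusters for each design, was obtained by curve-fitting normalised cluster fluorescence. Designed RNA switches had been transcribed on Illumina chips by stalled E. coli RNA polymerase and titrated with SNAP-549-labelled MS2 coat protein, doubling from 0.7 or 1.5 nM to 3 µM.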

[1] = input ligand: microRNA oligo, concentration not stated
[2] = Eterna round: R95, input ligand: FMN 200 uM
[3] = Eterna round: R95, input ligand: microRNA oligo, concentration not stated
[4] = Eterna round: R95, input ligand: none

AUUUUUAGUGCAGGAUAUGAUUAACAUGAGGAUCACCCAUGUGGUGUUGUGAGUAAGGAGAGUGAUCAGAAGGGCAUUUUUUUU [JMF's solution 92] (Eterna round: R96, puzzle: Same State NG 2)
apparent KD of MS2 coat protein (input ligand: FMN 200 uM): 1020 nM | apparent KD of MS2 coat protein [1]: 452 nM | apparent KD of MS2 coat protein (input ligand: none): 456 nM

CACAUGAGGAUCACCCAUGUGAGGCGGCAAUAAAACCGCGCACAGGAUAUAGCGCUAUAAAUGCACUAGAAGGGUGAUUAGAAC [Zabeceis] (Eterna round: R96, puzzle: Same State NG 3)
apparent KD of MS2 coat protein (input ligand: FMN 200 uM): 1680 nM | apparent KD of MS2 coat protein [1]: 69.6 nM | apparent KD of MS2 coat protein (input ligand: none): 36.4 nM

CACCAGAGGAGAGGAUAUGGUCGAACCCACAGUCCAGAAGGCUCACAGGAACCUAGAGACAUGAGGAUCACCCAUGUGGCGACC [Eternabot solution 7] (Eterna round: R96, puzzle: Same State NG 1)
apparent KD of MS2 coat protein (input ligand: FMN 200 uM): 144 nM | apparent KD of MS2 coat protein [1]: 105 nM | apparent KD of MS2 coat protein (input ligand: none): 165 nM

CACGUCCAGGUAGGAUAUGAGGUGCCACAGGGAAAAGCCUGUGGACAUGAGGAUCACCCAUGUCCUCAGAAGGGCCGGACGUGG [Reanorge] (Eterna round: R96, puzzle: Same State NG 2)
apparent KD of MS2 coat protein (input ligand: FMN 200 uM): 17.3 nM | apparent KD of MS2 coat protein [1]: 52.8 nM | apparent KD of MS2 coat protein (input ligand: none): 72 nM

CAGCACUGUCGAGAGGAUAUGCGGUGAUAGACAUGAGGAUCACCCAUGUUAGCGACAGCAUCACGGCAGAAGGCUCUGCUGCUGC [Soteed Omei mod 40] (puzzle: Same State 2)
apparent KD of MS2 coat protein [2]: 43.5 nM | apparent KD of MS2 coat protein [3]: 130 nM | apparent KD of MS2 coat protein [4]: 349 nM

CAGCACUGUCGAGAGGAUAUGCGGUGAUGGACAUGAGGAUCACCCAUGUUAGCGACAGCAUCACGGCAGAAGGCUCUACUGUUGC [Soteed Omei mod 34] (puzzle: Same State 2)
apparent KD of MS2 coat protein [2]: 12.6 nM | apparent KD of MS2 coat protein [3]: 12.2 nM | apparent KD of MS2 coat protein [4]: 14.3 nM

CAGCGUACCGGAGGAUAUUGUGGAUACGACCAACAUGAGGAUCACCCAUGUGGGACUAGUCAAAUCAAGAAGGUUGGACCGUCA [Eternabot solution 44] (Eterna round: R96, puzzle: Same State NG 2)
apparent KD of MS2 coat protein (input ligand: FMN 200 uM): 26.2 nM | apparent KD of MS2 coat protein [1]: 25.6 nM | apparent KD of MS2 coat protein (input ligand: none): 33.3 nM

CAGGCGCAACAUGAGGAUCACCCAUGUGCUAACUUAACAGGGCAGGAUAUGGAAGCUCUAUGUCUCCAGAAGGGCUGGCGGAGC [Eternabot solution 38] (Eterna round: R96, puzzle: Same State NG 3)
apparent KD of MS2 coat protein (input ligand: FMN 200 uM): 48.2 nM | apparent KD of MS2 coat protein [1]: 32.6 nM | apparent KD of MS2 coat protein (input ligand: none): 53.3 nM

CAUAAACCUCACGAGGAUAUCCACAGAUAGACAUGAGGAUCACCCAUGUCGACUUUCGAACUGAGGGAGAAGGCGUAGGUACUAA [Gebiorge] (puzzle: Same State 2)
apparent KD of MS2 coat protein [2]: 12.1 nM | apparent KD of MS2 coat protein [3]: 13.1 nM | apparent KD of MS2 coat protein [4]: 13.4 nM

CAUCGUUUGAUAGGAUAUCGCUAUACAUGAGGAUCACCCAUGUUUACCACGCUGGUUUUUCAUACCGAGAAGGAUUCUGAUGAA [salish99_SSNG02_r04_011] (Eterna round: R96, puzzle: Same State NG 2)
apparent KD of MS2 coat protein (input ligand: FMN 200 uM): 24.9 nM | apparent KD of MS2 coat protein [1]: 29.7 nM | apparent KD of MS2 coat protein (input ligand: none): 34.5 nM

CAUCGUUUGAUAGGAUAUCGCUAUACAUGAGGAUCACCCAUGUUUACCACGCUGGUUUUUCAUACCGAGAAGGAUUCUGAUGAU [salish99_SSNG02_r04_013] (Eterna round: R96, puzzle: Same State NG 2)
apparent KD of MS2 coat protein (input ligand: FMN 200 uM): 29.6 nM | apparent KD of MS2 coat protein [1]: 27.8 nM | apparent KD of MS2 coat protein (input ligand: none): 32.5 nM

CAUCUAUACGUAGGAUAUGUAGGAUAUUCCUACAUGAGGAUCACCCAUGUUCGCAUGGAAGAAGGACAGAAGGACGAACUACUU [pwkr ssNG2 2FMN + 1F5.7] (Eterna round: R96, puzzle: Same State NG 2)
apparent KD of MS2 coat protein (input ligand: FMN 200 uM): 320 nM | apparent KD of MS2 coat protein [1]: 144 nM | apparent KD of MS2 coat protein (input ligand: none): 21.5 nM

CAUCUCCCUUUUACAUGAGGAUCACCCAUGUUUUUAUAAUGAGAGGAUAUCGUAUUUAGAAACAUCGAGAAGGCUCAAUUGUAU [JR_SSNG3_Sub071] (Eterna round: R96, puzzle: Same State NG 3)
apparent KD of MS2 coat protein (input ligand: FMN 200 uM): 131 nM | apparent KD of MS2 coat protein [1]: 93 nM | apparent KD of MS2 coat protein (input ligand: none): 153 nM

CCAAAGUACAAUUUAGAUCUACAUGAGGAUCACCCAUGUACUGAGGAUAUCAGCUCGAAUAGAGCUGAGAAGGCAGAAUUAAUU [SSNG3/4-A1] (Eterna round: R96, puzzle: Same State NG 3)
apparent KD of MS2 coat protein (input ligand: FMN 200 uM): 155 nM | apparent KD of MS2 coat protein [1]: 155 nM | apparent KD of MS2 coat protein (input ligand: none): 317 nM

CCAAAGUACAAUUUAGAUCUACAUGAGGAUCACCCAUGUACUGAGGAUAUCAGCUCGAUUAGAGCUGAGAAGGCAGAAUUAAUU [SSNG3/4-A2] (Eterna round: R96, puzzle: Same State NG 3)
apparent KD of MS2 coat protein (input ligand: FMN 200 uM): 101 nM | apparent KD of MS2 coat protein [1]: 90 nM | apparent KD of MS2 coat protein (input ligand: none): 148 nM

CCAUAACGGUGAGGAUAUUGUUGCGAUAAGUGACGAGAAGGCAUUCAUGUGAAAUAAACAUACAUGAGGAUCACCCAUGUUGUA [Omei SS(NG)1 Bv3] (Eterna round: R96, puzzle: Same State NG 1)
apparent KD of MS2 coat protein (input ligand: FMN 200 uM): 22.6 nM | apparent KD of MS2 coat protein [1]: 40.8 nM | apparent KD of MS2 coat protein (input ligand: none): 50.2 nM
